Consider 7 compounds from PMC5303546 (Biochemical Pharmacology, 2017).

Where only a bound is given, the exact number is not on record here.

Experiment [1] deals with PTH2R (C397Y). As to the kind of experiment: LANCE cAMP screen, mutant PTH2. The settings on record: 1 μM PTH(1–34), 10,000 cells/well, 30 min. (In general: TR-FRET usually uses a lanthanide donor and a delayed reading to cut background.)
Method: (§1) These various pcDNA3 constructs were used to express the wild type human PTH1 and PTH2 receptors, and mutant PTH2 receptors, in Human Embryonic Kidney (HEK)-293 cells.
(§2) The HEK-293 cells were cultured in Dulbecco’s Modified Eagle’s Medium (DMEM, from Sigma, Poole, UK) supplemented with 10% foetal calf serum (Lonza Wokinham Ltd., Wokingham, UK) and containing 2 mM L-glutamine, 100 U/ml penicillin and 100 μg/ml streptomycin (Invitrogen, Paisley, UK). Cells were transfected with pcDNA3 containing the cDNA encoding the receptors, using the SuperFect® Transfection Reagent (Qiagen Ltd., Crawley, UK.) and stable clones were selected with G418 antibiotic (Invitrogen, Paisley, UK) as follows. Cells were seeded into a 25 cm^2 flask containing 10 ml of media and transfected when they reached 50–80% confluence. To do this, 20 μl of SuperFect® was mixed with a DNA solution consisting of 5 μg plasmid DNA in 150 μl DMEM. The DNA was incubated with the reagent for 10 min at room temperature after which 1 ml of media was then added and mixed gently. […]
(§3) The LANCE cAMP kit (PerkinElmer Life and Analytical Sciences) was used alongside the manufacturer’s instructions with some minor adaptations as described. […] The acceptor fluorescence signal was read at 665 nm on a ViewLux instrument (Perkin Elmer).
Experiment [2] deals with PTH2R (C381A). Put plainly: LANCE cAMP screen, mutant PTH2. The note with it: 1 μM PTH(1–34), 10,000 cells/well, 30 min.
Method: as §1, §2, §3
Experiment [3] deals with PTH2R (A320V). As to the kind of experiment: LANCE cAMP screen, mutant PTH2. The note with it: 1 μM PTH(1–34), 10,000 cells/well, 30 min.
Method: as §1, §2, §3
Experiment [4] relates to PTH2R (L382T). As to the kind of experiment: LANCE cAMP screen, mutant PTH2. The note with it: 1 μM PTH(1–34), 10,000 cells/well, 30 min.
Method: as §1, §2, §3
Experiment [5] has as its system PTH2R (A295V). As to the kind of experiment: LANCE cAMP screen, mutant PTH2. The settings on record: 1 μM PTH(1–34), 10,000 cells/well, 30 min.
Method: (§4) The full-length cDNA of human PTH1 and PTH2 (gift from GlaxoSmithKline) in pcDNA3 (Invitrogen, Paisley, UK) were used to express wild type receptors as described previously [14]. […] These various pcDNA3 constructs were used to express the wild type human PTH1 and PTH2 receptors, and mutant PTH2 receptors, in Human Embryonic Kidney (HEK)-293 cells.
(§5) The HEK-293 cells were cultured in Dulbecco’s Modified Eagle’s Medium (DMEM, from Sigma, Poole, UK) supplemented with 10% foetal calf serum (Lonza Wokinham Ltd., Wokingham, UK) and containing 2 mM L-glutamine, 100 U/ml penicillin and 100 μg/ml streptomycin (Invitrogen, Paisley, UK). Cells were transfected with pcDNA3 containing the cDNA encoding the receptors, using the SuperFect® Transfection Reagent (Qiagen Ltd., Crawley, UK.) and stable clones were selected with G418 antibiotic (Invitrogen, Paisley, UK) as follows. Cells were seeded into a 25 cm^2 flask containing 10 ml of media and transfected when they reached 50–80% confluence. To do this, 20 μl of SuperFect® was mixed with a DNA solution consisting of 5 μg plasmid DNA in 150 μl DMEM. […]
as §3
In experiment [6] the test system is PTH2R (A293V). As to the kind of experiment: LANCE cAMP screen, mutant PTH2. The settings on record: 1 μM PTH(1–34), 10,000 cells/well, 30 min.
Method: as §4, §5, §3
For experiment [7], the system named is PTH2R (A297V). As to the kind of experiment: LANCE cAMP screen, mutant PTH2. The note with it: 1 μM PTH(1–34), 10,000 cells/well, 30 min.
Method: as §1, §2, §3
For experiment [8], the system named is PTH2R (V380 M). As to the kind of experiment: LANCE cAMP screen, mutant PTH2. It is filed as cell-based, human. The note with it: 1 μM PTH(1–34), 10,000 cells/well, 30 min.
Method: as §1, §2, §3
Experiment [9] relates to PTH2R (I244L). As to the kind of experiment: LANCE cAMP screen, mutant PTH2. The note with it: 1 μM PTH(1–34), 10,000 cells/well, 30 min.
Method: as §4, §5, §3
The subject of experiment [10] is PTH2R (G327V). Put plainly: LANCE cAMP screen, mutant PTH2. The note with it: 1 μM PTH(1–34), 10,000 cells/well, 30 min.
Method: as §1, §2, §3
For experiment [11], the system named is PTH2R (V146 M). As to the kind of experiment: LANCE cAMP screen, mutant PTH2. The settings on record: 1 μM PTH(1–34), 10,000 cells/well, 30 min. It is filed as cell-based, human.
Method: as §4, §5, §3
The subject of experiment [12] is PTH2R (L399M). Put plainly: LANCE cAMP screen, mutant PTH2. The settings on record: 1 μM PTH(1–34), 10,000 cells/well, 30 min.
Method: as §1, §2, §3
Experiment [13] relates to PTH2R (V241T). Put plainly: LANCE cAMP screen, mutant PTH2. The settings on record: 1 μM PTH(1–34), 10,000 cells/well, 30 min.
Method: as §4, §5, §3
For experiment [14], the system named is PTH1. Put plainly: LANCE cAMP screen, wild type PTH1. The settings on record: 1 μM PTH(1–34); HEK-293 stable cells, 10,000 cells/well, 30 min stimulation. Type of experiment: cell-based, human.
Method: as §4, §5, §3
Experiment [15] relates to PTH2R (T192V). As to the kind of experiment: LANCE cAMP screen, mutant PTH2. The settings on record: 1 μM PTH(1–34), 10,000 cells/well, 30 min.
Method: as §4, §5, §3
Experiment [16] has as its system PTH2R (Y318I). Put plainly: LANCE cAMP screen, mutant PTH2. The settings on record: 1 μM PTH(1–34), 10,000 cells/well, 30 min.
Method: as §1, §2, §3
The test system of experiment [17] is PTH2R (M242F). Put plainly: LANCE cAMP screen, mutant PTH2. The note with it: 1 μM PTH(1–34), 10,000 cells/well, 30 min.
Method: as §4, §5, §3
The test system of experiment [18] is PTH2R (V296S). Put plainly: LANCE cAMP screen, mutant PTH2. The settings on record: 1 μM PTH(1–34), 10,000 cells/well, 30 min.
Method: as §1, §2, §3
Experiment [19] deals with PTH2 receptor mutant Tyr-318-Ile (human) (UniProt P49190). Put plainly: radioligand binding; whole-cell competition: HEK-293 cells expressing the receptor in poly-D-lysine coated 24-well plates; 50 pM ^125I-rPTH(1–34); unlabelled ligand 10 μM–10 pM; room temperature, 2 h; Whole Cell Binding Buffer pH 7.7 with 5% horse serum and 0.5% foetal calf serum; IC50 from a single site model with the Hill co-efficient constrained to 1.

In experiment [20] the target is parathyroid hormone 2 receptor (PTH2), wild type, human (human) (UniProt P49190). Described as above.
Experiment [21] concerns the target PTH2 receptor mutant Tyr-318-Phe (human) (UniProt P49190). The experiment is described as above.
Experiment [22] addresses PTH2 receptor mutant Tyr-318-Ile (human) (UniProt P49190).
Experiment [23] addresses parathyroid hormone 2 receptor (PTH2), wild type, human (human) (UniProt P49190).
Experiment [24] addresses PTH2 receptor mutant Tyr-318-Phe (human) (UniProt P49190).
The test system of experiment [25] is PTH2. The note with it: cited from earlier work. The text has this:
Despite the success of the chimeric and single residue-swap studies of PTH1 and PTH2 described above, [14], [15], [20], which identified PTH/PTHrP binding and selectivity determinants at PTH1 and PTH2, the nature of the TIP39 selection has not been explored to the same degree.

PTH2 receptor mutant Tyr-318-Ile (human), sequence (P49190 25-550 Y318I): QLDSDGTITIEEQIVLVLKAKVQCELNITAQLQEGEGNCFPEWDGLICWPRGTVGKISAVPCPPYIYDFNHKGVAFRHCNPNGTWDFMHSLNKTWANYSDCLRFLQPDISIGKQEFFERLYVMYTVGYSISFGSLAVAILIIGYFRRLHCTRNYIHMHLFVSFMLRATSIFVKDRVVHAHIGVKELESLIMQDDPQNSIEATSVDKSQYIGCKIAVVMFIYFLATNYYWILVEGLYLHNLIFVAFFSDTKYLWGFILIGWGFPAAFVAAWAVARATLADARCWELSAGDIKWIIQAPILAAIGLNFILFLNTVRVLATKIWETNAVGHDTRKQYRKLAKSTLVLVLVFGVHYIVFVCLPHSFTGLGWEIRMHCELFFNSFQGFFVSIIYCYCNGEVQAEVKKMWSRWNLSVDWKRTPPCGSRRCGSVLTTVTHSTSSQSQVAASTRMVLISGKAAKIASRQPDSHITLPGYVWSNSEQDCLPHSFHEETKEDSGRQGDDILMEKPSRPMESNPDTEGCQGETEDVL
PTH2 receptor mutant Tyr-318-Phe (human), sequence (P49190 25-550 Y318F): as the sequence (P49190 25-550 Y318I) above, with I294F counted along it
parathyroid hormone 2 receptor (PTH2), wild type, human (human), sequence (P49190 25-550): as the sequence (P49190 25-550 Y318I) above, with I294Y counted along it

For `CC[C@H](C)[C@H](NC(=O)[C@H](CCC(=O)O)NC(=O)[C@H](CO)NC(=O)[C@@H](NC(=O)[C@@H](N)CO)C(C)C)C(=O)N[C@@H](CCC(N)=O)C(=O)N[C@@H](CC(C)C)C(=O)N[C@@H](CCSC)C(=O)N[C@@H](Cc1c[nH]cn1)C(=O)N[C@@H](CC(N)=O)C(=O)N[C@@H](CC(C)C)C(=O)NCC(=O)N[C@@H](CCCCN)C(=O)N[C@@H](Cc1c[nH]cn1)C(=O)N[C@@H](CC(C)C)C(=O)N[C@@H](CC(N)=O)C(=O)N[C@@H](CO)C(=O)N[C@@H](CCSC)C(=O)N[C@@H](CCC(=O)O)C(=O)N[C@@H](CCCNC(=N)N)C(=O)N[C@H](C(=O)N[C@@H](CCC(=O)O)C(=O)N[C@@H](Cc1c[nH]c2ccccc12)C(=O)N[C@@H](CC(C)C)C(=O)N[C@@H](CCCNC(=N)N)C(=O)N[C@@H](CCCCN)C(=O)N[C@@H](CCCCN)C(=O)N[C@@H](CC(C)C)C(=O)N[C@@H](CCC(N)=O)C(=O)N[C@@H](CC(=O)O)C(=O)N[C@H](C(=O)N[C@@H](Cc1c[nH]cn1)C(=O)N[C@@H](CC(N)=O)C(=O)N[C@@H](Cc1ccccc1)C(=O)O)C(C)C)C(C)C` [PTH(1–34)], the “% maximum PTH(1–34) response” value in experiment [1] is listed as 100 ± 2%; in experiment [2] it was 100 ± 2%; in [3], 100 ± 1%; in experiment [4], 102 ± 2%; in experiment [5], 99 ± 2%; in experiment [6], 99 ± 2%. In addition, the “% maximum PTH(1–34) response” value in [7] amounted to 100 ± 2%; in experiment [8] it was 102 ± 1%; in experiment [9], 100 ± 3%; in experiment [10] it was 100 ± 2%; in [11], 102 ± 1%; in experiment [12], 101 ± 1%. The “% maximum PTH(1–34) response” value is recorded as 100 ± 1% in experiment [13]; 99 ± 2% in [14]; 102 ± 2% in experiment [15]; 99 ± 1% in experiment [16]; 98 ± 2% in experiment [17]; 101 ± 2% in experiment [18].

One may read the IC50 as the concentration at which inhibition is half-maximal. The low end stands for inhibition by little substance, the high end for a need for much substance. Broadly, the pIC50 is −log10 of the IC50, conventionally taken in molar units. High values mean a low IC50, low ones a high IC50. TIP (2–39) (peptide): the IC50 in experiment [19] is 1480 nM; in [20], 58.9 nM; in experiment [21], 417 nM. In addition, the pIC50 in [19] was determined as 5.83; in experiment [20], 7.23; in experiment [21], 6.38. The cAMP accumulation (LANCE), EC50; 2500 cells/well, 10 min stood at 41.7 nM in experiment [22], 0.12 nM in [23] and 4.79 nM in [24]. Further, the cAMP accumulation (LANCE), pEC50; 2500 cells/well, 10 min was determined as 7.38 in experiment [22], 9.92 in [23] and 8.32 in [24].

Take TIP (3–39) (peptide): the IC50 came to 1260 nM in experiment [19], 105 nM in experiment [20] and 479 nM in [21]. Also, the pIC50 in [19] was found to be 5.9; in experiment [20], 6.98; in [21] it was 6.32. Further, the cAMP accumulation (LANCE), EC50; 2500 cells/well, 10 min in [22] was found to be 50.1 nM; in experiment [23], 0.22 nM; in experiment [24], 9.55 nM. The cAMP accumulation (LANCE), pEC50; 2500 cells/well, 10 min in [22] was 7.3; in experiment [23], 9.66; in experiment [24] it was 8.02.

In the case of TIP (4–39) (peptide), the IC50 was found to be 1480 nM in experiment [19], 158 nM in experiment [20] and 603 nM in [21]. Also, the pIC50 in experiment [19] came out at 5.83; in experiment [20], 6.8; in experiment [21] it was 6.22. In addition, the figures for the cAMP accumulation (LANCE), EC50; 2500 cells/well, 10 min in experiment [22], in experiment [23] and in experiment [24] were 89.1 nM, 0.29 nM and 13.2 nM, respectively. Also, the cAMP accumulation (LANCE), pEC50; 2500 cells/well, 10 min was 7.05 in experiment [22], 9.54 in [23] and 7.88 in [24].

TIP (5–39) (peptide): the IC50 in experiment [19] stood at 7240 nM; in [20], 871 nM; in [21], 3240 nM. Further, the pIC50 in [19] is 5.14; in experiment [20], 6.06; in [21], 5.49. For the same compound, the cAMP accumulation (LANCE), EC50; 2500 cells/well, 10 min in experiment [22] was more than 1000 nM; in experiment [23], 17 nM; in [24], 912 nM. Besides, the values for the cAMP accumulation (LANCE), pEC50; 2500 cells/well, 10 min in experiment [22], in [23] and in experiment [24] were less than 6, 7.77 and 6.04, respectively.

With TIP (6–39) (peptide), the IC50 in [19] was found to be 8710 nM; in experiment [20] it was 1050 nM; in [21], 4270 nM. In addition, the pIC50 in experiment [19] was determined as 5.06; in [20], 5.98; in experiment [21], 5.37. Further, the cAMP accumulation (LANCE), EC50; 2500 cells/well, 10 min is 123 nM in experiment [23] and more than 1000 nM in experiment [24]. The cAMP accumulation (LANCE), pEC50; 2500 cells/well, 10 min in experiment [23] was 6.91; in experiment [24] it was less than 6.

Take “TIP (7–39): TIP39 truncated by the first 6 residues, literature peptide (ref 21) (DAAFRERARLLAALERRHWLNSYMHKLLVLDAP; Tuberoinfundibular peptide of 39 residues; UniProt Q96A98 68-100, looked up, fragment)”: the “efficacy at PTH2” value in experiment [25] was “no efficacy”.
